Consider 139 substances from the supplement of paper PMC12042874.

± gives the uncertainty stated by the source.

The nature of the series: amyloid nucleation score (Sup35N fusion, yeast selection) (log enrichment); library NNK1; higher = more nucleation; inactive = no reads after selection. In short, it runs like this:
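The nucleation score is a DiMSum log enrichment of output over input reads, centred on the mode score of non-aggregating sequences. Sequences under 100 input reads were excluded, and reads came from Illumina sequencing of plasmid inserts. Psi-negative yeast expressing Sup35N fused to peptides of 20 random codons were induced with 100 μM copper sulfate for 24 hours and grown 7 days at 30°C on medium lacking adenine and uracil. Random libraries had three technical output replicates.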
On to RYGGRCNTR, for which the amyloid nucleation score came to 0.016 ± 1.7. To RYIPARGVNGGYSVVVRHLG belongs -0.436 ± 0.38; to RYKNSIDSESVINRLLWDAT, 0.431 ± 0.8; to RYKWMYFCFHLIMVGNRMSA, “inactive”. In the case of RYMLHDLIFPVSVVMRVSYE, the amyloid nucleation score amounted to 0.92 ± 0.22. With RYMWYLVCS the figure was 0.026 ± 0.7; with RYNAILAWCSLRKTGVYFLV, 1.09 ± 1. With RYNTPNGVYICLNA the figure was -1.03 ± 0.39; with RYPTGAKKLQMLNDVLMLYR, -0.479 ± 0.3. With RYRSMHHFRVHDKHPMLGYA the figure was 1.34 ± 0.84.

RYRSVVIPRVHAIEVIYAAC showed an amyloid nucleation score of -0.378 ± 0.97. The substance RYTLFCLSVNYWWTFWLDSV showed an amyloid nucleation score of 1.61 ± 0.58. In the case of RYVCTESESVDLSQMAVIMS, the amyloid nucleation score was 1.13 ± 0.4. To RYVPVATKSSTGMSYWDIMV belongs 0.194 ± 0.38. In turn, RYWSRQRLTDVYVFRLDMSR had an amyloid nucleation score of -2.07 ± 2.4. To SAAGT belongs 0.49 ± 0.66; to SAGHLNYNEWLNGCGDRGKC, -0.367 ± 0.53.

In the case of SARYL, the amyloid nucleation score was 0.496 ± 0.7. To SARYLMEFWKVHIKAYIMSF belongs 0.099 ± 0.79. With SAVGAIDANIYKSDGYSWG the figure was -0.879 ± 0.58; with SCAASGNLYVSSAGGVRGKR, -0.734 ± 0.46. For the substance SCACRYSDLVWVINSLRTVA, the amyloid nucleation score was 0.46 ± 0.83.

SCHRPVPSRASSEKILGIAC: the amyloid nucleation score stood at 0.157 ± 1.4.

In the case of SCILFY, the amyloid nucleation score was found to be 1.75 ± 0.14. Substance SCKPGPIVSLDFVFVVYPWE yielded an amyloid nucleation score of 0.002 ± 0.9. As to SCLMY, the amyloid nucleation score entry was “inactive”. With SCPTMYSYVFWVRFQSGTAS the figure was 1.72 ± 0.13; with SCRSGRRRPLPTGGPILATN, -0.015 ± 0.64. With SCTYSIFCDNISRTLGH the figure was -0.287 ± 0.26; with SCWNSCNKMSF, 2.87 ± 0.24; with SDALTKMDLITLRDKI, “inactive”. To SDELVQSTASGLFYASMGFK belongs 1.75 ± 0.76. SDFNLDSSGMKRVKSRV: the amyloid nucleation score came to 0.817 ± 0.69. SDLWLLECWTLDICGWLKAT yielded an amyloid nucleation score of 0.992 ± 0.58. With SDMFSLNYSFDERTFWKQTS, the amyloid nucleation score entry was “inactive”. SDNYVKAYVRVRRVMTKGGS had an amyloid nucleation score of -0.579 ± 0.58. To SDSGPTALNVYFPGTCQGNS belongs “inactive”; to SDVSYLVNSSNVGLWHL, 0.467 ± 0.4.

SDWGGVMVDRGSGW returned an amyloid nucleation score of 1.36 ± 0.47.

Turning to SEIPVNGLARLCRGRYRNRQ, the amyloid nucleation score was found to be 4.66 ± 0.11. In turn, SEKGCYYIGSLTGR gave an amyloid nucleation score of 0.184 ± 1.2.

Take SEMSLSRDSCLLSIV: the amyloid nucleation score was 0.141 ± 0.18. For the substance SFARVWVWSACA, the amyloid nucleation score is -0.559 ± 0.49. Substance SFCVRQSTVFLMMSWECFRY displayed an amyloid nucleation score of 1.19 ± 0.8. For SFEFGSSGRICVCIMFPVER, the amyloid nucleation score is 1.08 ± 0.56. In turn, SFESVVIVLKLNALFPCVST showed an amyloid nucleation score of -0.048 ± 0.28. To SFFSSVVDF belongs 0.2 ± 0.63; to SFGVSNTSYWTAEKVVGYAT, 0.501 ± 0.7; to SFKRYRRYRSKRVRRIGRGR, 0.677 ± 0.52. To SFLLYGLFAYVSAYIRDICA belongs -0.166 ± 0.38; to SFLSVFAMFYVQLPCHNMVS, -0.15 ± 0.64.

SFNVKVAHGLIRFSPDICYQ registered an amyloid nucleation score of 4.47 ± 0.13.

Regarding SFRAKDG, the amyloid nucleation score result is “inactive”. Regarding SFREHGRSSNRP, the amyloid nucleation score was 0.423 ± 1.4. To SFSLMGRFRSFMYACIVAAC belongs -0.936 ± 0.57. With SFYCSHEVYLCNALYIDRVR the figure was 3.67 ± 0.098. As for SFYLIPPSCGYISHFGISTG, the amyloid nucleation score result was “inactive”. In turn, SFYYWHPIALVSMVYK had an amyloid nucleation score of 5.89 ± 0.073.

SGAYATVPVYQEWLSQIKLL came in with an amyloid nucleation score of 0.327 ± 1. With SGCGTGKVDVNWGLENAKAG the figure was 0.408 ± 0.59; with SGDIKSFWMERCFCLVTHGK, -0.115 ± 0.57. To SGDSSYIMLLVVAPMYCQLP belongs -0.148 ± 0.83; to SGGSEELLRVVMVSSMKGPW, -0.254 ± 0.81; to SGHNSLGFISGIAINIFYRE, 7.537 ± 0.069. For SGHRFCAVRSRATGERFYGW, the amyloid nucleation score entry is “inactive”. To SGLIKVGISLRLHYGLYLRY belongs 0.684 ± 0.88; to SGPFSTYMTRFFLDFGSVDC, -1.71 ± 2.4; to SGPRRQIDAIMFRGL, -0.086 ± 1.2. Consider SGQTYGNFFGEAFWYECA, for which the amyloid nucleation score came to 0.19 ± 1.4. With SGTTRWCRGGV the figure was 0.127 ± 0.74; with SGVVTCVVFL, 5.38 ± 0.066. With SGWIKIFG the figure was -0.293 ± 0.66; with SGYLRKRYTRRDC, “inactive”. SGYSLASVVILLKAVYCLGW displayed an amyloid nucleation score of 0.627 ± 0.72.

SGYWAPINLTGVMDS returned an amyloid nucleation score of 0.053 ± 1.1.

Substance SHADVR yielded an amyloid nucleation score of -0.027 ± 0.83.

SHIFRWNTCRMEIRWYNQYY registered an amyloid nucleation score of 1.14 ± 0.71. SHVGSYSWVCSRLARIGCER had an amyloid nucleation score of -0.703 ± 0.46. With SHYNNNHSAGWLLQLFTMAC the figure was 0.05 ± 0.88. To SIFADGLVVGLGPSLYSVFF belongs 0.175 ± 0.54; to SIGLC, 1.31 ± 0.76. To SILMWLNLARSLGTIYLLFV belongs 0.046 ± 0.76; to SILVRVSVR, 0.444 ± 1.2.

In the case of SIMNISVAYCGSM, the amyloid nucleation score is 3.67 ± 0.14. To SIQLGSFWSGCEICCDYPPA belongs -0.805 ± 0.67. In turn, SIRLPVIKRSRL showed an amyloid nucleation score of -0.109 ± 0.66.

With SIRLREL, the amyloid nucleation score is 1.61 ± 0.76. With SIRWVIHDRVSRVYDVLRCG the figure was 0.944 ± 0.54; with SIYYKARSEWSMASAIDGYV, 0.85 ± 0.72; with SKDKGSTLGTSNLGRDGSWK, 0.5 ± 0.45. To SKDYVDL belongs “inactive”; to SKEESPMTFVWILGGHSELS, -0.448 ± 0.32; to SKICLMSIYHLQLDPFIGMP, 3.03 ± 0.17. As for SKLFLGGLPCTQYWPRMCMV, the amyloid nucleation score was -0.356 ± 0.64. To SKLTYLTMPSVGEIHFWNPM belongs 3.44 ± 0.18; to SKMCY, -0.692 ± 0.43. To SKSRMLPIGTRGCRNSQFVE belongs 1.06 ± 0.63; to SKYLCNMLPISDLHMGQTFN, -0.391 ± 0.44; to SLDEVARVLCP, -0.21 ± 0.58. With SLGIHPHVDKLLYRRFQLDY the figure was -0.567 ± 0.77; with SLGLFKIIRKPYHCSAPSQA, 0.551 ± 0.47; with SLIRLCVAVTSTSNPGWPLL, 3.09 ± 0.12. Take SLKCSNGR: the amyloid nucleation score worked out at 0.49 ± 0.3. To SLLCYRRGSWGEYIMFNGRL belongs -0.366 ± 0.84. To SLLRARIKVVPV belongs -1.46 ± 1.6; to SLMFTPEYCVED, 1.41 ± 0.69. Substance SLNAMFIFLLAYKRGVYEYM came in with an amyloid nucleation score of 1.25 ± 0.24. To SLNKRWCLRTQFGVAMVRTP belongs 0.416 ± 0.99; to SLPVLCASRYHLHYRMGFSG, 1 ± 0.69; to SLRLFEFFWLTFGSSQIHLA, -0.032 ± 0.5. Substance SLRSQCGSVNLIFMVMFSVW displayed an amyloid nucleation score of -0.236 ± 1.2. To SLSRMVGCTTVF belongs “inactive”; to SLVALINNCSVSTKMGSLPY, 0.87 ± 0.22. With SLVLDGVSTPPIDYLNLVLV the figure was -1.26 ± 0.76; with SLVLRRLYEVSVTCTAGNAW, 0.094 ± 0.98; with SLVMGVYRRQCRGNPRAMSK, 1.21 ± 0.44.

For the substance SLYDLTDTAICFAFFYFD, the amyloid nucleation score was 7.95 ± 0.082. SLYMT: the amyloid nucleation score stood at 0.192 ± 0.34.

Take SLYRDYVRFGWLVRCGNGHD: the amyloid nucleation score is 0.078 ± 0.23. Consider SMAPGDSS, for which the amyloid nucleation score stood at 0.02 ± 0.34.

With SMCLCVYIWIALYGWVMLIP, the amyloid nucleation score was determined as 0.217 ± 0.21.

On to SMDLHMYSKFMRYSVFVCNL, for which the amyloid nucleation score is 1.14 ± 0.79.

As for SMLRCLY, the amyloid nucleation score is 0.758 ± 0.85.

As to SMLRNTNLNAIPKFTVSFVL, the amyloid nucleation score is -0.021 ± 0.69. SMVRYTMDSKVKKRSSVVVG: the amyloid nucleation score is 3.56 ± 0.18.

Consider SNAPFRKAQQRGLYKWWSWR, for which the amyloid nucleation score was determined as 0.728 ± 0.54. In turn, SNDVAFMAIKKHRTLSYQTD registered an amyloid nucleation score of 0.165 ± 0.47. To SNEVEGLFLKLYNFVPVRQW belongs 0.148 ± 0.26; to SNEVVKFKWSCIPETCSRVW, 0.429 ± 0.61; to SNIWSSKKINTCLGM, 1.7 ± 0.16. Substance SNKRNYRLE came in with an amyloid nucleation score of 0.401 ± 0.62.

SNLLPLYP: the amyloid nucleation score worked out at 0.263 ± 1.1. To SNLRMLNMASTSPR belongs -0.368 ± 0.34; to SNLWFL, -0.213 ± 0.28.

SNMLHWSVRMGHGWW came in with an amyloid nucleation score of 0.184 ± 1. To SNPTYLWVVLLVRSAALRMD belongs “inactive”; to SNRFFVPRA, -0.334 ± 0.5; to SNSAFCNGSVMCVEVSLRHA, 7.037 ± 0.062. The substance SNSMLISYSCEFTWGVGKVL displayed an amyloid nucleation score of 0.242 ± 0.4.
